Laboratory results taken from patent publication US6518397B1, “Pharmaceuticals for modulating hormone responsiveness” (priority 1995, dated 2003).
Entries after “also recorded” stand apart in the source; their conditions may differ. Where no end group is shown, it is not given here.

Key:
[1] = target: T1, DNA binding domain of recombinant rat androgen receptor (AR) / calreticulin (p60) (Homo sapiens, UniProt P27797); experiment: Gel mobility shift (gel retardation) assay: calreticulin (p60) inhibition of AR-ARE binding and its reversal by peptides/antibody; settings: for Effectiveness of binding to calreticulin, in words: effect of substitution in KXFFX1R sequence, band shift; for Reversal of p60 (calreticulin) inhibition of AR-ARE binding: peptide, antibody or IgG pre-incubated with p60; for Reversal of GST-calreticulin (recombinant calreticulin) inhibition of AR-ARE interaction: calreticulin 2 μg, peptides at 50-fold molar excess
T1 construct: endogenous in cells
T1 sequence (P27797 18-417): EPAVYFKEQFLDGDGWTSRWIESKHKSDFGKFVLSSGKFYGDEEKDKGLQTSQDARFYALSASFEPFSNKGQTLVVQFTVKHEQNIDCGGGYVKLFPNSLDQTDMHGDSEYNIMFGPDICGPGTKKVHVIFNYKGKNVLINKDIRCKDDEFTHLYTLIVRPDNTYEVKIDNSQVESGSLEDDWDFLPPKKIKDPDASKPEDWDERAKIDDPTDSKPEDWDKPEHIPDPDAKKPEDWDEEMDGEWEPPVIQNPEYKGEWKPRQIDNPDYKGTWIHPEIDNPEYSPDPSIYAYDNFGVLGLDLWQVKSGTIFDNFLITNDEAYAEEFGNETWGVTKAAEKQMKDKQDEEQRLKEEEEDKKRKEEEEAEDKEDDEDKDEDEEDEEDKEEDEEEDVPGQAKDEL
Procedure: To determine whether p60 (calreticulin) could directly modulate the binding of nuclear hormone receptors to DNA via the KXFFX^1R [SEQ ID NO:1] sequence, the interaction of the DNA binding domain of recombinant androgen receptor with its hormone responsive element was analyzed by carrying out gel mobility shift assays.
(§1) As described in Rennie et al., 1993, DNA binding domain of recombinant rat androgen receptor was prepared as a GST-fusion protein using the pGEX-3X vector and purified by glutathione-agarose affinity chromatography. p60 (calreticulin) was purified by affinity chromatography on KLGFFKR-sepharose [SEQ ID NO:7], followed by gel electrophoresis as described in detail in Rojiani et al., 1991. […] Recombinant calreticulin (GST-fusion protein) was prepared as described by Baksh and Michalak, 1991. Gel retardation assays were carried out as described by Rennie et al., 1993. To analyze the effect of p60, or recombinant calreticulin, on receptor-DNA binding activity, the AR was pre-incubated with p60 for 30 min at 4° C. To analyze the effects of synthetic peptides, anti-calreticulin antibody, and non-immune IgG on p60 inhibition of AR-ARE binding, the peptide, antibody or IgG were pre-incubated with p60 for 30 min at 4° C. The androgen receptor preparation was then added to these mixtures and further incubated for 30 min at 4° C.
Affinity purified DNA binding domain of the recombinant rat androgen receptor (AR) was pre-incubated with or without the indicated concentrations of purified p60 at 4° C. for 30 min. After this pre-incubation the reaction mixtures were incubated with ^32P-labeled 26 base pair ARE (Rennie et al., 1993) (androgen response element), and analyzed by gel retardation assay. The sequence of the ARE used was [SEQ ID NO:28]:
Amino acids in the KXFFX^1R [SEQ ID NO: 1] sequence were modified. Androgen receptor and calreticulin were incubated in the presence of the modified peptides and allowed to interact with an oligonucleotide containing the androgen response element (the method of this assay is described in Example 3). The interaction was analyzed by gel mobility shaft assay (FIGS. 5A-5C).

[2] = system: retinoic acid receptor mediated gene transcription (bRARE luciferase) in P19 cells; experiment: RARE-driven luciferase reporter in P19 cells after peptide preincubation; format: cell-based, mouse; settings: for Luciferase × 10^6: P19 cells, 10^-7 retinoic acid
Procedure: In order to test whether a peptide based on the calreticulin-binding KXGFFKR [SEQ ID NO:30] sequence modulates retinoic acid induced gene transcription in live cells, the p19 cells were transfected with a reporter vector consisting of a retinoic acid response element fused to the luciferase gene.
Cell culture conditions: Mouse embryonic carcinoma (P19) cell, grown in 60 mm dishes in 7.5% donor calf serum, 2.5% fetal calf serum alpha MEM (Gibco/BRL) were treated with the peptides KLGFFKR [SEQ ID NO:7] or KLRFGFK [SEQ ID NO:29] for three hours or overnight for 20 hours at 37° C., 5% CO2. With few exceptions, KLXFFKR [SEQ ID NO:31] is the peptide sequence specific within the binding domain of all steroid receptors. KLRFGFK [SEQ ID NO:29] is the scrambled peptide of the above sequence. Subsequently each plate was washed four times with serum free alpha MEM to remove excess peptides and replenished with fresh serum containing media. Cells were then transfected by standard calcium phosphate precipitation method (Current Protocols in Molecular Biology 9:1) with 1 microgram bRARE in pTKluc, 1.5 microgram pRSV bgal, 3 microgram pKS (carrier) per 60 mm dish. Following a 16 hour incubation at 37° C. 5% CO2, each plate was washed two times with serum free alphaMEM and replenished with serum containing media supplement with […] retinoic acid (Sigma R2625) and 800 microgram/ml G418 (Gibco 1181-031). Following another 24 hours incubation cells were washed three times with PBS and each 60 mm dish of cells was lysed in 100 microliters of 1 % triton X100, 100 mM KPO4 pH7.8, 1 mM DTT. Cell lysates were stored at −70° C. Prior to luciferase/bgal assays, cell debris were spun out on an Eppendorf microfuge (5415C) at 4° C. full speed for 20 minutes.
Luciferase assay: All reagents were equilibrated to room temperature and each sample was assayed independently. Ten microliters of cell lysate was incubated with 50 microliters of luciferase reagent (Promega E1483) in an Eppendorf tube. Thirty seconds later, the sample was immediately counted in a Beckman scintillation counter (LS6000IC) for one minute using an open window. Standards in the range of 0.001 nanogram to 1.0 nanogram was used to establish the linearity of the assay.
Beta-gal assay: Assay was done in a microtitre plate (Linbro 76-232-05). Ten microliters of cell lysate were mixed with 90 microliters of bgal reagent in 88 mM phosphate buffer, 11 mM KCl, 1 mM MgCl2, 55 mM 2ME, 4.4 mM chlorophenol red b-D-galactopyranoside (BMC 884-308). Incubation period varied from 30 minutes to 2 hours at 37° C. Results were read at 570 nm in an ELISA reader (Dynatech MR5000).

[3] = target: T2, calreticulin as used in the gel mobility shift assays of Examples 7 and 15 (Homo sapiens (Human), UniProt P27797 18-417); experiment: gel mobility shift, PhosphorImager; reversal of calreticulin inhibition of RAR/RXR binding to its DNA response element; competitor RAR/RXR
T2 construct: Could be m1 or m2
T2 sequence: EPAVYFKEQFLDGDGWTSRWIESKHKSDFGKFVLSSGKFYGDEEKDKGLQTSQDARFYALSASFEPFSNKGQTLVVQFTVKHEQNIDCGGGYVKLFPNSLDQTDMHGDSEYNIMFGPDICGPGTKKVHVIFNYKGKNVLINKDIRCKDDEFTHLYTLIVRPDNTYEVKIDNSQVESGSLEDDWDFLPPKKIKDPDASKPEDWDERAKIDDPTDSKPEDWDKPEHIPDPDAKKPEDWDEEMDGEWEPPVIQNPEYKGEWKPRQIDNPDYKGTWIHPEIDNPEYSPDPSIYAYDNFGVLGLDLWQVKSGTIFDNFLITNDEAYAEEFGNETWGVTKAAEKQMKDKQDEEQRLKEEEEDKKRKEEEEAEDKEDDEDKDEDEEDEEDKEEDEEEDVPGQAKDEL
Excerpt: (§2) This Table relates to the retinoic acid receptors (RAR/RXR) and the androgen receptor (AR). […] The data was quantified using a Phosphormager (Molecular Dynamics).

[4] = target: T2, calreticulin as used in the gel …; experiment: gel mobility shift, PhosphorImager; reversal of calreticulin inhibition of AR binding to its DNA response element; competitor AR
Procedure: as §1, with “To analyze the effects of synthetic peptides, anti-calreticulin antibody, and non-immune IgG on p60 inhibition of AR-ARE binding, the peptide, antibody or IgG were pre-incubated with p60 for 30 min at 4° C.” left out
as §2

[5] = overnight preincubation with 10 micromolar peptide
[6] = overnight preincubation with 50 micromolar peptide
[7] = overnight preincubation with 100 micromolar peptide

KVFFKA [compound 430]
Effectiveness of binding to calreticulin, in words [1]: decreased the ability of peptides to bind calreticulin

KLRFGFK [reference compound]
Reversal of p60 (calreticulin) inhibition of AR-ARE binding [1]: much less effective
Corrected values luc/bgal [2, 5]: 42.04
Luciferase × 10^6 [2, 5]: 14 × 10^6
Corrected values luc/bgal [2, 6]: 41.34
Luciferase × 10^6 [2, 6]: 16 × 10^6
Corrected values luc/bgal [2, 7]: 32.26
Luciferase × 10^6 [2, 7]: 14 × 10^6

KVFFKR [compound 285]
Reversal of GST-calreticulin (recombinant calreticulin) inhibition of AR-ARE interaction [1]: can also reverse the inhibition; also recorded: reversed
Reversal of p60 (calreticulin) inhibition of AR-ARE binding [1]: reversed

KGFRRR [compound 421]
Effectiveness of binding to calreticulin, in words [1]: increased the effectiveness of binding to calreticulin

KGFFGR [compound 416]
Effectiveness of binding to calreticulin, in words [1]: decreased the ability of peptides to bind calreticulin

KGFFKG [compound 417]
Effectiveness of binding to calreticulin, in words [1]: decreased the ability of peptides to bind calreticulin

KLGFFKR
Reversal of GST-calreticulin (recombinant calreticulin) inhibition of AR-ARE interaction [1]: Reversal of this inhibition
Reversal of p60 (calreticulin) inhibition of AR-ARE binding [1]: reversed
Effect by itself on the receptor-DNA interaction ([1]; without p60, data not shown): neither KLGFFKR peptide [SEQ ID NO:7], anti-calreticulin antibody, nor non-immune IgG by themselves had any effect
Corrected values luc/bgal [2, 5]: 32.91
Luciferase × 10^6 [2, 5]: 13 × 10^6
Corrected values luc/bgal [2, 6]: 45.15
Luciferase × 10^6 [2, 6]: 20 × 10^6
Luciferase × 10^6 [2, 7]: 28 × 10^6
Luciferase activity (retinoic acid receptor mediated gene transcription), in words ([2]; pre-incubation of P19 cells with peptide): dose-dependent increase in luciferase activity

KGRFKR [compound 414]
Effectiveness of binding to calreticulin, in words [1]: increased the effectiveness of binding to calreticulin

bovine serum albumin: other protein of similar size, used as control [reference compound]
Effect of protein on AR-ARE (receptor-DNA) complex formation ([1]; protein pre-incubated with AR 30 min at 4° C.): did not have any effect on the nuclear receptor-DNA interaction

KVAFKR (not fully specified) [compound 427]
Effectiveness of binding to calreticulin, in words [1]: decreased the ability of peptides to bind calreticulin

KGRFRR [compound 420]
Effectiveness of binding to calreticulin, in words [1]: increased the effectiveness of binding to calreticulin

KVFAKR [compound 429]
Effectiveness of binding to calreticulin, in words [1]: decreased the ability of peptides to bind calreticulin

KGFRKR [compound 415]
Effectiveness of binding to calreticulin, in words [1]: increased the effectiveness of binding to calreticulin

KLRFGFK (Control) [KLRFGFK scrambled peptide]
% Reversal [3]: 34%

KGFFKR (also called 409) [KGFFKR peptide]
% Reversal [3]: 100%

B1: KVFFKR peptide (peptide)
peptide: KVFFKR
notes: also called 285; androgen receptor derived peptide
% Reversal [4]: 100%

GLGFFKR [GLGFFKR peptide]
% Reversal [4]: 100%
% Reversal [3]: 45%

KLGFFKG [KLGFFKG peptide]
% Reversal [4]: 63%
% Reversal [3]: 22%

KLDFFKR [KLDFFKR peptide]
% Reversal [4]: 0%
% Reversal [3]: 73%

KLGFFGR [KLGFFGR peptide]
% Reversal [4]: 85%
% Reversal [3]: 65%

KLGFRKR [KLGFRKR peptide]
% Reversal [4]: 6%
% Reversal [3]: 20%

KLGRFKR [KLGRFKR peptide]
% Reversal [4]: 10%
% Reversal [3]: 24%
